Results on two molecules are retold here after patent US20230023093A1 (University of Pennsylvania, published 2023).

Assay [1] addresses HIV-1 Env of Bal26 (clade B, Tier 1) on pseudotyped virus (HIV-1 clade B, Bal26). As to the kind of experiment: cell-based or functional assay.
Assay [2] addresses HIV-1 Env of SF162S (clade B, Tier 1) on pseudotyped virus (HIV-1 clade B, SF162S). As to the kind of experiment: cell-based or functional assay.
Assay [3] deals with HIV-1 Env of the primary isolate Q23Env17 (pOpt-Env-A) (HIV-1 clade A, Q23Env17). As to the kind of experiment: cell-based or functional assay.
For assay [4], the target named is T1, HIV-1 Env of clade B strain SF162 on transfected 293T cells (HIV-1 clade B, SF162, UniProt P19550 32-847).
T1 construct: whole, on cells
The assay can be described thus: binding of day 6 mouse sera to Env expressed in transfected 293T cells (FIG. 12).

Assay [5] deals with recombinant HIV-1 Env (subtype B; MN) protein (HIV-1 subtype B, MN, UniProt P05877 32-513). The assay can be described thus: binding ELISA, serial dilutions of day 14 mouse sera. Background: ELISA stands for enzyme-linked immunosorbent assay.

B1: HIV-1 Env Fab (VRC01 based Fab generated from pHIV-1 Env Fab) (Fab, V domains shown)
VH: QVQLVQSGGQMKKPGESMRISCRASGYEFIDCTLNWIRLAPGKRPEWMGWLKPRGGAVNYARPLQGRVTMTRDVYSDTAFLELRSLTVDDTAVYFCTRGKNCDYNWDFEHWGRGTPVIVSS
VL: QIVLTQSPGTLSLSPGETAIISCRTSQYGSLAWYQQRPGQAPRLVIYSGSTRAAGIPDRFSGSRWGPDYNLTISNLESGDFGVYYCQQYEFFGQGTKVQVDI
Take B1: the “plateau percent neutralization (TZM-Bl luciferase assay, sera 1:50)” value in assay [1] was ~62%; in assay [2], ~70%; in assay [3] it was ~60%. Moreover, the binding result in assay [4] is “binds”.

B2: CHIKV-Env-Fab (Fab, V domains shown)
VH: QVQLVQSGSELKKPGASVKVSCKASGYTLTRYAMTWVRQAPGQGLEWMGWINTYTGNPTYVQGFTGRFVFSLDTSVSTAFLHITSLKAEDTAVYFCAREGGARGFDYWGQGTLVTVSS
VL: QSVLTQPPSVSGAPGQRVTISCTGSSSNIGASHDVHWYQQLPGTAPTLLIYVNSNRPSGVPDRFSGSKSGTSASLAITGLQAEDEADYYCQSYDSNLSGSAVFGGGTKLTVLG
On to B2, for which, in assay [5], the binding result is recorded as “no binding”.
